Key:
[1] = test system: Protein AMBP; assay: Pull-down and mass spectrometry target capture; assay type: binding, human; conditions: 100.0 = no target protein observed in the control pulldown
Procedure: (§1) To identify binding partners of SG-3-0020 in human cells, pull-down and mass spectrometry analysis were used (FIG. 15). Multiple target capture experiments were performed with SG-3-0020 and controls. Binding conditions and cross-linkers were varied to achieve maximum enrichment of peptide over controls. Nine putative binding partners to SG-3-0020 were identified using MS and were nominated for confirmation using CRISPR Knock Out (KO) Experiments (Table 12, FIG. 16). The enrichment ratio was calculated as described below: […]

[2] = test system: naïve CD4+ and CD8+ T cells (Th0); conditions: incubation of a naïve T cell with the polypeptide; cited from earlier work
[3] = target: Low-density lipoprotein receptor (Homo sapiens, UniProt P01130); assay: Pull-down and mass spectrometry target capture; assay type: binding; set-up: endogenous in cells; conditions: 100.0 = no target protein observed in the control pulldown
Procedure: as §1

[4] = target: Teneurin-3 (Homo sapiens, UniProt Q9P273); assay: Pull-down and mass spectrometry target capture; assay type: binding; set-up: endogenous in cells; conditions: 100.0 = no target protein observed in the control pulldown
Procedure: as §1

[5] = target: Bone marrow stromal antigen 2 (Homo sapiens, UniProt Q10589); assay: Pull-down and mass spectrometry target capture; assay type: binding; set-up: endogenous in cells; conditions: 100.0 = no target protein observed in the control pulldown
Procedure: as §1

[6] = target: Cation-independent mannose-6-phosphate receptor (Homo sapiens, UniProt P11717); assay: Pull-down and mass spectrometry target capture; assay type: binding; set-up: endogenous in cells; conditions: 100.0 = no target protein observed in the control pulldown
Procedure: as §1

[7] = target: Tumor necrosis factor (Homo sapiens, UniProt P01375); assay: Pull-down and mass spectrometry target capture; assay type: binding; set-up: endogenous in cells; conditions: 100.0 = no target protein observed in the control pulldown
Procedure: as §1

[8] = test system: primary human unstimulated T cells; assay: CRISPR knock-out target validation in T cells stimulated with anti-CD3 and peptide; assay type: cell-based; conditions: targets identified from mass spectrometry
Procedure: Functional validation was performed by CRISPR knock-out to confirm target effects on SG-3-0020-mediated activity. […] RNPs were introduced into primary human unstimulated T cells via Nucleofection and cells were cultured for 96 hours. OR1A1 served as negative control and CD3E was used as positive control. Post knock-down T cells were stimulated in vitro culture of Purified T cells with anti-CD3 (0.1 μg/mL) and SG-3-05429 (mutant SG-3-0020 with improved activity) (10 μM) and was incubated for 48 hours. A decrease in IFN-γ secretion (FIG. 17A) and a decrease in activated CD4 and CD8 T cell subsets was also observed (CD25+, PD-1+=Markers of T cell activation) (FIG. 17B) was observed after target knock-down compared to the negative control (OR1A1). […] Activation of CD2 has the potential to be a therapeutic opportunity.

[9] = target: T1, Prohibitin (Homo sapiens, UniProt P35232); assay: Pull-down and mass spectrometry target capture; assay type: binding; conditions: 100.0 = no target protein observed in the control pulldown
T1 construct: endogenous in cells
T1 sequence (P35232 1-272): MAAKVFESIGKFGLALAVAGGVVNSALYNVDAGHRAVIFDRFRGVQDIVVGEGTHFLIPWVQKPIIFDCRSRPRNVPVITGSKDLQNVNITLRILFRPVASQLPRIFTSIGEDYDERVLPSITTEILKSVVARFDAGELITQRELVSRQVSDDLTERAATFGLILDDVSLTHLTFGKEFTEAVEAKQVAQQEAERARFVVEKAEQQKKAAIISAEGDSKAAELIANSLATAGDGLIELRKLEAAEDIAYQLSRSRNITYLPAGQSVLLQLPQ
Procedure: as §1

[10] = target: T2, Tumor necrosis factor receptor superfamily member 4 (Homo sapiens, UniProt P43489); assay: Pull-down and mass spectrometry target capture; assay type: binding; conditions: 100.0 = no target protein observed in the control pulldown
T2 construct: endogenous in cells
T2 sequence (P43489 29-277): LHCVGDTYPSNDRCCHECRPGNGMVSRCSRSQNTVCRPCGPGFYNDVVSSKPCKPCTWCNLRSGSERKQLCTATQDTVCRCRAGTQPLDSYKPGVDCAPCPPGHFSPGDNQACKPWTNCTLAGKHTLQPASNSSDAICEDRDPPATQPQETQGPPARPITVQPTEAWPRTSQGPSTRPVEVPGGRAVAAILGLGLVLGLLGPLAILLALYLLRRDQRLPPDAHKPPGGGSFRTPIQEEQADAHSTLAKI
Procedure: as §1

[11] = target: T3, CD2 (cluster of differentiation 2) (Homo sapiens, UniProt P06729); assay: Pull-down and mass spectrometry target capture; assay type: binding; conditions: 100.0 = no target protein observed in the control pulldown
T3 construct: endogenous in cells
T3 sequence (P06729 25-351): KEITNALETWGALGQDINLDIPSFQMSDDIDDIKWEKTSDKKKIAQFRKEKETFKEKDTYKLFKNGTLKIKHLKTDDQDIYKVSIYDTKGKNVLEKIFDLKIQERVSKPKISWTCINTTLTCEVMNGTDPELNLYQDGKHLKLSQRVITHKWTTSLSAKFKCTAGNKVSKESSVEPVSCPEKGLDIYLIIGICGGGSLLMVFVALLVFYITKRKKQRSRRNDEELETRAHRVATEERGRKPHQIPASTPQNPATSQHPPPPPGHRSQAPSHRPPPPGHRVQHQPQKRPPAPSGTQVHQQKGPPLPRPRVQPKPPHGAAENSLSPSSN
Procedure: as §1

[12] = target: SSTR1 (human, UniProt P30872 1-391); assay: cell-based or functional assay
[13] = target: CXCR4 (human, UniProt P61073 1-352); assay: cell-based or functional assay
[14] = target: T4, MRGPRX2 (human, UniProt Q96LB1 1-330); assay: cell-based or functional assay
T4 sequence (looked up): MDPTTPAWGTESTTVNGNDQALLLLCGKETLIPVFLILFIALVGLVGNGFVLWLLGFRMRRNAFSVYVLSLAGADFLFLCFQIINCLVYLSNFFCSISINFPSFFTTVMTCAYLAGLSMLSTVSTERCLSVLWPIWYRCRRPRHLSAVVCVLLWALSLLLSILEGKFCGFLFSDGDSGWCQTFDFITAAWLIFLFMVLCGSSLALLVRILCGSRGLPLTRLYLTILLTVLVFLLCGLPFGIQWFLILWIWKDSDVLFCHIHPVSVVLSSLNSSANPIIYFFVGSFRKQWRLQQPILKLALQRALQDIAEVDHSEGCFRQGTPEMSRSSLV

[15] = target: T5, CHRM5 (human, UniProt P08912 1-532); assay: cell-based or functional assay
T5 sequence (looked up): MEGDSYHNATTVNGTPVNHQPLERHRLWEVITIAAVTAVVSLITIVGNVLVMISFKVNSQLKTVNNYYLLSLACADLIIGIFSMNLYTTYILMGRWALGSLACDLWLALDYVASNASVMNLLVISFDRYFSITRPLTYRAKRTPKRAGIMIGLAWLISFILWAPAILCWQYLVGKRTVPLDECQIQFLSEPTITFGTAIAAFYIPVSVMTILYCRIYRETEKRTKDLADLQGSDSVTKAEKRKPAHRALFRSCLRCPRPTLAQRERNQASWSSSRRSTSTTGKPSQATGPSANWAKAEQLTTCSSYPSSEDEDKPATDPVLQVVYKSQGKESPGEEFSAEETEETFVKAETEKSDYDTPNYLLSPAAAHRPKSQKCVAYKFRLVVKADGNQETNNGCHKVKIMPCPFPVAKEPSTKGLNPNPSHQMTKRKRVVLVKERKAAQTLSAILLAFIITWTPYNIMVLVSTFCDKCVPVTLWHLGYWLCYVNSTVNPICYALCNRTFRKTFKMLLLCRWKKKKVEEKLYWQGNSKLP

[16] = target: T6, CCR9 (human, UniProt P51686 1-369, limits assumed); assay: cell-based or functional assay
T6 sequence (looked up): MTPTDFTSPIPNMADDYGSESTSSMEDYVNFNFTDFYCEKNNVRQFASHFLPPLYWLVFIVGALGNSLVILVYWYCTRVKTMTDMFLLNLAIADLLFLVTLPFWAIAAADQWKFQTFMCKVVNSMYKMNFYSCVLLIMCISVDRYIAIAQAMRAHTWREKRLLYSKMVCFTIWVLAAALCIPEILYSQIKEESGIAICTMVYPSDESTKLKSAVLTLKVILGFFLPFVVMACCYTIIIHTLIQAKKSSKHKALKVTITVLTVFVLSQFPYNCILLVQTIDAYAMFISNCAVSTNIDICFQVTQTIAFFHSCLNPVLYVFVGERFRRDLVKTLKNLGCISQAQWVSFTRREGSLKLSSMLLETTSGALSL

[17] = target: T7, HCRTR2 (human, UniProt O43614 1-444); assay: cell-based or functional assay
T7 sequence (looked up): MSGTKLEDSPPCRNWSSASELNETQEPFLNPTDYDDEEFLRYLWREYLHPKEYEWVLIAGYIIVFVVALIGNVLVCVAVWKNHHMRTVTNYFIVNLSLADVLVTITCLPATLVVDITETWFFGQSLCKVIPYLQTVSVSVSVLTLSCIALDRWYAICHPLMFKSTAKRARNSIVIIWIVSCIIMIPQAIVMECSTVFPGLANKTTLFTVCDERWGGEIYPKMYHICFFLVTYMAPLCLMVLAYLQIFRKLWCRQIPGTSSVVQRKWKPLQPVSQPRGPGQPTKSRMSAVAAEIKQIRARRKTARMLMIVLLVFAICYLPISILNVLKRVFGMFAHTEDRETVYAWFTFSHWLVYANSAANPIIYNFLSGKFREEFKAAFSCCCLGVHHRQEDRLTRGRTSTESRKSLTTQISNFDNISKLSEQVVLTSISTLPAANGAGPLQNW

[18] = target: T8, CXCR3 (human, UniProt P49682 1-368); assay: cell-based or functional assay
T8 sequence (looked up): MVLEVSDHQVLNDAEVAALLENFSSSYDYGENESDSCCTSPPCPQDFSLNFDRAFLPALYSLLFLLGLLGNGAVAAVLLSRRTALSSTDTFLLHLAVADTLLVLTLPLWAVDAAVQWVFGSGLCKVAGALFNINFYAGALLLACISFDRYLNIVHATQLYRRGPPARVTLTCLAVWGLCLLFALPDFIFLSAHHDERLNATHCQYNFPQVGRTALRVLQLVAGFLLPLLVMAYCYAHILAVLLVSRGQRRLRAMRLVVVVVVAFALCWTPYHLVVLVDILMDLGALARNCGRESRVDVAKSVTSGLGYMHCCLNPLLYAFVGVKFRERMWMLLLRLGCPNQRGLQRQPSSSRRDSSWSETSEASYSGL

[19] = target: TSHR(L) (human, UniProt P16473-1 21-764, limits assumed); assay: cell-based or functional assay
[20] = target: T8, CXCR3; assay: CXCR3 activity assay with ligand, with SG-3-00802 or SG-3-05021 added

Sequence of CXCR4 (P61073 whole entry): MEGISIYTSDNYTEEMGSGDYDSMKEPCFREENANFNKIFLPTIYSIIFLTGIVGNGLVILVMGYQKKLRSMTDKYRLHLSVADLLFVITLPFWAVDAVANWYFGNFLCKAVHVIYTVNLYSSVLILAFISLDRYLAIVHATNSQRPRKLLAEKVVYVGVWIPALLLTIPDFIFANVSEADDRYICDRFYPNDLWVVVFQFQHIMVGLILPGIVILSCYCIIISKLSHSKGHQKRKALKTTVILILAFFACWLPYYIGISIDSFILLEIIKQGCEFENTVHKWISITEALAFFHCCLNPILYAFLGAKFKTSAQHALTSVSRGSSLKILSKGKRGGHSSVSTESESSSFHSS
Sequence of SSTR1 (P30872 whole entry): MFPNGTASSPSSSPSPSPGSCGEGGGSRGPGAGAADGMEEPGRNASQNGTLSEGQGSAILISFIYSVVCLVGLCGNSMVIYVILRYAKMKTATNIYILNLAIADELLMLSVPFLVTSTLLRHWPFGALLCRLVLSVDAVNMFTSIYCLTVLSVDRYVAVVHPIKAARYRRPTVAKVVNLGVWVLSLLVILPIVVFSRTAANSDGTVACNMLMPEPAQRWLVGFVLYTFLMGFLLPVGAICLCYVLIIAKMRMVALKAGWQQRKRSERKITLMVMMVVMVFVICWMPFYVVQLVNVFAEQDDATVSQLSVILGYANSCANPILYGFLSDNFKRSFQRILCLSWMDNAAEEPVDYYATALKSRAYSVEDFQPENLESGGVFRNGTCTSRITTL
Sequence of TSHR(L) (P16473 21-764 limits assumed): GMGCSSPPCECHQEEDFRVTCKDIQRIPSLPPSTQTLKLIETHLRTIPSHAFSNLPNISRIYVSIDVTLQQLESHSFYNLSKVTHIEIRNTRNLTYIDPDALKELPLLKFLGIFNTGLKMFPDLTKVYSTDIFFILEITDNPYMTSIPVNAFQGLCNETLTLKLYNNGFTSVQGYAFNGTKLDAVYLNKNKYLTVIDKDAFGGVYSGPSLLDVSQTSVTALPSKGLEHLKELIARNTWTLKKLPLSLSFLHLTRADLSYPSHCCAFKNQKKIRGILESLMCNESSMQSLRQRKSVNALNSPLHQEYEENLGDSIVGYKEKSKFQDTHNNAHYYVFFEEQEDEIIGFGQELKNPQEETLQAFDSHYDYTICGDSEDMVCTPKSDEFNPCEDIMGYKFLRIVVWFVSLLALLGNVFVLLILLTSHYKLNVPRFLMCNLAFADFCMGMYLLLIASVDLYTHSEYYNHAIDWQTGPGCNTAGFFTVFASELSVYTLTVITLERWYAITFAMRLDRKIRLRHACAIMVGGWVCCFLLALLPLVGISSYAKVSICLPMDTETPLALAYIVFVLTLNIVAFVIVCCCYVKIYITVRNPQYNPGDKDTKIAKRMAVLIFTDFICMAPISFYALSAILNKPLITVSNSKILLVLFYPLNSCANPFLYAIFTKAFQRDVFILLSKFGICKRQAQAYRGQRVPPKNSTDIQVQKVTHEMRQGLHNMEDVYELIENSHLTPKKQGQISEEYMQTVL
Sequence of Tumor necrosis factor (P01375 whole entry): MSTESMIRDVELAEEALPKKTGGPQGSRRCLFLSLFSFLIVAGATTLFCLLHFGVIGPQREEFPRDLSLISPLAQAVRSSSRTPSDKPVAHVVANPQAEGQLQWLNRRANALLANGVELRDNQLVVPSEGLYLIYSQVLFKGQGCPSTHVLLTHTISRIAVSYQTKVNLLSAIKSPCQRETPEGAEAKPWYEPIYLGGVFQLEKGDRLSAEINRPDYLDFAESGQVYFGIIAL
Sequence of Low-density lipoprotein receptor (P01130 22-860): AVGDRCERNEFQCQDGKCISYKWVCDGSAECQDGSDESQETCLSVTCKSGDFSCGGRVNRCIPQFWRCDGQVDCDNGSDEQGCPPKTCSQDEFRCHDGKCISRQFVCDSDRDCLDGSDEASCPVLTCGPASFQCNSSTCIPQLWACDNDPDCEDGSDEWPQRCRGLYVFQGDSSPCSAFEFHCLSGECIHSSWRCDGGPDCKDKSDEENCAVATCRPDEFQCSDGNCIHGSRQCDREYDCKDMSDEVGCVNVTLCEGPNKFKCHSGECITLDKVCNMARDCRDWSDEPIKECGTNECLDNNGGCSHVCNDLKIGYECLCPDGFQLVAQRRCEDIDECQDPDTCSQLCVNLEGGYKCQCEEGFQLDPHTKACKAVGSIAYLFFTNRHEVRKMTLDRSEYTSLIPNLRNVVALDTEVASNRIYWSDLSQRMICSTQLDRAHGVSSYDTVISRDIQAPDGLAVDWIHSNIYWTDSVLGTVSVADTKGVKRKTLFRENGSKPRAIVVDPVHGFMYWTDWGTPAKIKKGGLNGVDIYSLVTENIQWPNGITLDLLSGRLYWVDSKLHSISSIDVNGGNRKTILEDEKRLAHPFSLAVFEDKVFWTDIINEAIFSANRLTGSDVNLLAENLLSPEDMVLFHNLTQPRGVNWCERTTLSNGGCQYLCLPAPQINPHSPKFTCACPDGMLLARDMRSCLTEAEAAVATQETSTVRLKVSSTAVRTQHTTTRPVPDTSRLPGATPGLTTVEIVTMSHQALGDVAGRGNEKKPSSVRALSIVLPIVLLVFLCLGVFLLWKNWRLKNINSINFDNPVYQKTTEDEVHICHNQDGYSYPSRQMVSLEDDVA
Sequence of Cation-independent mannose-6-phosphate receptor (P11717 41-2491): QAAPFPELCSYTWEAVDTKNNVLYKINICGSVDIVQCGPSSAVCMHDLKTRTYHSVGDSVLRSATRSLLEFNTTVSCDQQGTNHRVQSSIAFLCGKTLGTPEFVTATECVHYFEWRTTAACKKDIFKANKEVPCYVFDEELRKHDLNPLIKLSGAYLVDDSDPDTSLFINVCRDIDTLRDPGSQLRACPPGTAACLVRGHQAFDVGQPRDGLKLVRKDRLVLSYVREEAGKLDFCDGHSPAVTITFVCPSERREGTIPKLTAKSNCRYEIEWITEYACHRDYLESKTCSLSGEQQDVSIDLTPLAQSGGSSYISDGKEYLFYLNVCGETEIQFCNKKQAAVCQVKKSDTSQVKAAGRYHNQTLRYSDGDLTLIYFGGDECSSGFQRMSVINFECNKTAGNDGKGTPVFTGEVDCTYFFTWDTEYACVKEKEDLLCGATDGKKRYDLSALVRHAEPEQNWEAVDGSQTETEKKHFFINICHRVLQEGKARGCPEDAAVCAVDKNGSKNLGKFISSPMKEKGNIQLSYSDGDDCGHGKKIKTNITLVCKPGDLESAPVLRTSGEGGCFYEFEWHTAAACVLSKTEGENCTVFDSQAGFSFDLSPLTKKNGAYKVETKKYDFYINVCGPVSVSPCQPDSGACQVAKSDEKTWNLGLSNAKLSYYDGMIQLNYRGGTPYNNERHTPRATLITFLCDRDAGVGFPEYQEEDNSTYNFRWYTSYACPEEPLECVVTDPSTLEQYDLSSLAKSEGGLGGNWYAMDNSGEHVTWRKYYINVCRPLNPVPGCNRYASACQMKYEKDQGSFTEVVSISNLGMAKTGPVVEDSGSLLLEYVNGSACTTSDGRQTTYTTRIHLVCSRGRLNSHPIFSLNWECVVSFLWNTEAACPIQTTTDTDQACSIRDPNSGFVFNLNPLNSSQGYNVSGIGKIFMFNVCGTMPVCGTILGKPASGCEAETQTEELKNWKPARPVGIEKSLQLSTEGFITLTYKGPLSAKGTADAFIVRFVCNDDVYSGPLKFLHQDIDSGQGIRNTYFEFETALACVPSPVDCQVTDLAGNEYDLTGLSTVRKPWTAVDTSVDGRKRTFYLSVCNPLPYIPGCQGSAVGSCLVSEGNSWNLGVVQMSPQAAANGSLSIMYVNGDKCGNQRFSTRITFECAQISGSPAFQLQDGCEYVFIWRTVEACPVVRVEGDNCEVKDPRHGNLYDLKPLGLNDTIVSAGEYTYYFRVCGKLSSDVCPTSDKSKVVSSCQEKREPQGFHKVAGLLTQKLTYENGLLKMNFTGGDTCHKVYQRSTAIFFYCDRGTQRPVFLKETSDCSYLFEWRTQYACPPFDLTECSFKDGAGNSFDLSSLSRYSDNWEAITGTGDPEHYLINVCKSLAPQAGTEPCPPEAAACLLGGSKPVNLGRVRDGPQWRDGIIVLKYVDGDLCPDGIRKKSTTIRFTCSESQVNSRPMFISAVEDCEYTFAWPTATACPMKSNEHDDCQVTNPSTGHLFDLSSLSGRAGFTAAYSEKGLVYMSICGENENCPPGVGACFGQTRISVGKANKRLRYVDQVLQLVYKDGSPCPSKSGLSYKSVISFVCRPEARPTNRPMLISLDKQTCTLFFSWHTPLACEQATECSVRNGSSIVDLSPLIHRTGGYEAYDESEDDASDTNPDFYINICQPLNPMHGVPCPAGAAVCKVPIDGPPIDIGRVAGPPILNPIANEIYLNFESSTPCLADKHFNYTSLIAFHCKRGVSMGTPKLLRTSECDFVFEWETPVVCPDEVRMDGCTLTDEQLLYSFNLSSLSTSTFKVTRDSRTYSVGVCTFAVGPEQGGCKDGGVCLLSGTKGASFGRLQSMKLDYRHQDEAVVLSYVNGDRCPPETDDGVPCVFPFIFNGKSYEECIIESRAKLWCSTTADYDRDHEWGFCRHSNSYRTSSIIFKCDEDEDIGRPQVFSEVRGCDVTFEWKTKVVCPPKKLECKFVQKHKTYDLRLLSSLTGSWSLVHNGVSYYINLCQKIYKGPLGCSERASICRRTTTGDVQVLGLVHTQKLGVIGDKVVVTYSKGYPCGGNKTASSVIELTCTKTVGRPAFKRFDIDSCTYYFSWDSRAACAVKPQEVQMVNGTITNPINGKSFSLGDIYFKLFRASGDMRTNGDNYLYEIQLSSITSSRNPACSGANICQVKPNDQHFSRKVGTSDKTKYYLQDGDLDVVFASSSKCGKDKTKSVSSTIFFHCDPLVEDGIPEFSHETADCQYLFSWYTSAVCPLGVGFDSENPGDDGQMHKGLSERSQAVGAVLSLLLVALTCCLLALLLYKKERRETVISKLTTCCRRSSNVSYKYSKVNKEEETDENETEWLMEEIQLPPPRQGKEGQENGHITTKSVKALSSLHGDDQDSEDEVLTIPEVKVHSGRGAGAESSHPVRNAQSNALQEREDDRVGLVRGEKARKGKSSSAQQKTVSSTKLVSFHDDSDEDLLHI

**Q.** Which Enrichment ratio [1] does the source give for “MLSTKKTKTHDHYPCGRMRDPGWHDWRACLTHQGIEEDEWPV [SG-3-0020, Bifidobacterium polypeptide]” here?
**A.** 69.1

**Q.** And the “number of CD4+ and/or CD8+ T cells having a CD25+/FoxP3− phenotype” value [2]?
**A.** increase

**Q.** What about the Enrichment ratio [3] of the same molecule?
**A.** 100.0

**Q.** What about the Enrichment ratio [4] of the same molecule?
**A.** 3.4

**Q.** What about the Enrichment ratio [5] of the same molecule?
**A.** 34.5

**Q.** What about the Enrichment ratio [6] of the same molecule?
**A.** 2.1

**Q.** What about the Enrichment ratio [7] of the same molecule?
**A.** 67.2

**Q.** What about the “human targets confirmed via CRISPR KO experiments” value [8] of the same molecule?
**A.** CD2, BST2, and TNF

**Q.** And the Enrichment ratio [9]?
**A.** 1.9

**Q.** What about the Enrichment ratio [10] of the same molecule?
**A.** 100.0

**Q.** What about the Enrichment ratio [11] of the same molecule?
**A.** 1.9

B1: SG-3-00802 (peptide)
peptide: MKVRPSVKPMCEKCKIIRRKGRVMVICENPKHKQRQG
**Q.** With B1 as the molecule, how does the “% Agonist Activity, PathHunter β-arrestin” value (“% Agonist Activity” below) [12] read?
**A.** -137%

**Q.** What about the “% Antagonist Activity, PathHunter β-arrestin” value (“% Antagonist Activity” below) [12] of the same molecule?
**A.** 61%

**Q.** What about the “% Agonist Activity” value [13] of the same molecule?
**A.** -14%

**Q.** And the “% Antagonist Activity” value [13]?
**A.** 99%

**Q.** What about the “% Agonist Activity” value [14] of the same molecule?
**A.** 66%

**Q.** What about the “% Antagonist Activity” value [14] of the same molecule?
**A.** -9%

**Q.** And the “% Agonist Activity” value [15]?
**A.** 28%

**Q.** And the “% Antagonist Activity” value [15]?
**A.** 11%

**Q.** What about the “% Agonist Activity” value [16] of the same molecule?
**A.** 2%

**Q.** What about the “% Antagonist Activity” value [16] of the same molecule?
**A.** -48%

**Q.** What about the “% Agonist Activity” value [17] of the same molecule?
**A.** 0%

**Q.** What about the “% Antagonist Activity” value [17] of the same molecule?
**A.** 67%

**Q.** And the “% Agonist Activity” value [18]?
**A.** -4%

**Q.** And the “% Antagonist Activity” value [18]?
**A.** -32%

**Q.** And the “% Agonist Activity” value [19]?
**A.** 3%

**Q.** What about the “% Antagonist Activity” value [19] of the same molecule?
**A.** 77%

B2: CXCL11 (ligand, UniProt O14625 22-94, looked up)
chain: FPMFKRGRCLCIGPGVKAVKVADIEKASIMYPSNNCDKIEVIITLKENKGQRCLNPKSKQARLIIKKVERKNF
**Q.** Does B2 bind [20]?
**A.** binds
